Reference: US20200277374A1 (Alector, published 2020)

Experiments:
[1] = molecular target: T1, human Siglec-7 expressed on human cells (primary monocytes, dendritic cells, macrophages, NK cells, … (human, UniProt Q9Y286 19-467)); assay: cell-based or functional assay
[2] = molecular target: T1, human Siglec-7 expressed on human cells …; assay: cell-based or functional assay; remark: listed apart in the source
[3] = molecular target: T1, human Siglec-7 expressed on human cells …; assay: FACS, human primary monocytes, 10 ug/ml mAb
Experimental: (§1) Initial characterization of Siglec-7 antibodies involved determining their ability to bind Siglec-7 expressed on human primary monocytes, human primary macrophages, human primary dendritic cells, human primary neutrophils, and human primary natural killer (NK) cells. Cells were harvested, plated at 10⁶/ml in a 96 well plate, and incubated in 100 ul PBS containing 2% FBS, 2 mM EDTA and 10 μg/ml Mab and Fc blocking reagent for 1 hour in ice. Cells were washed twice and incubated in 100 ul PBS containing 2% FBS, 2 mM EDTA and 5 ug/ml PE-conjugated secondary antibody for 30 minutes on ice. Cells were washed twice in cold PBS and analyze by flow cytometry on a BD FACS Canto. Data analysis and calculation of MFI values was performed with FlowJo (TreeStar) software version 10.0.7.
(§2) Percent positive binding and mean fluorescent intensity (MFI) values for cell types bound by Siglec-7 antibodies are listed in Table 4A. Binding is compared to an isotype control. The antibodies bind to human primary monocytes, human primary dendritic cells, and human primary macrophages. In Table 4A, “Buffer” refers to cells that were treated only with the PBS buffer described supra; “Secondary Ab” refers to cells that were treated only with the PE-conjugated secondary antibody; “mIgG1,” “mIgG2a,” and “mIgG2b” refer to isotype control antibodies; and “RDS7” refers to commerically available anti-Siglec-7 antibody Mab1138 (R&D Systems; Cat. No. MAB 1138).

[4] = molecular target: T1, human Siglec-7 expressed on human cells …; assay: FACS, human primary macrophages, 10 ug/ml mAb
Experimental: as §1, §2

[5] = molecular target: T1, human Siglec-7 expressed on human cells …; assay: FACS, human primary dendritic cells, 10 ug/ml mAb
Experimental: as §1, §2

[6] = molecular target: T2, Histidine-tagged human Siglec-7 (NovoProtein) (human, UniProt Q9Y286 19-357, limits assumed); assay: SPR (BiaCore T200, 25 C), antibody captured on anti-mouse IgG, Siglec-7-His 20 nM, single-concentration kinetics
T2 construct: Bought protein; also called purified Siglec-7-his tagged protein; not shown: histidine tag
Experimental: (§3) SPR data was collected at a rate of 10 Hz at 25′ C on a BiaCore T200 instrument. Data analysis was performed using BiaCore T200 Evaluation Software, version 2.0. HBS-EP+ (100 mM HEPES, 1.5 M NaCl, 30 mM EDTA, 0.5% v/v Surfactant P20, pH 7.4) was used as running buffer and for preparing reagents.
(§4) Mouse-derived antibodies (25 nM) against Siglec-7 were captured (60 s contact time, 30 μL/min flow rate, 0 s stabilization time) on a CM5 sensor chip (GE Healthcare) immobilized with anti-mouse IgG. Histidine-tagged human Siglec-7 (NovoProtein) was then flowed over the captured anti-Siglec-7 surface (120 s contact time, 30 μL/min flow rate, 300 s dissociation time). Concentration of antigen ranged from 5 nM to 100 nM, depending on information obtained from an initial screen. Duplicate single-concentration trials were performed and bracketed by a blank (0 nM antigen) sample. The chip surface was regenerated in between cycles using 10 mM glycine-HCl, pH1.7 (60 s contact time, 30 μL/min flow rate, 60 s stabilization time). The resulting SPR signal was obtained as the difference in response from measurements performed on a blank flow cell.
(§5) Affinity constants (KD) were calculated from the ratio kd/kₐ. For one antibody (clone 1E8), we validated the single-concentration analysis with a multiple-concentration approach (five concentrations of antigen used, plus one blank).

[7] = molecular target: T3, Siglec-7-Fc (plate immobilized) (human, UniProt Q9Y286 19-357, limits assumed); assay: RBC solid adhesion assay, plate-coated Siglec-7-Fc, antibody 0.5 or 1.0 ug/ml; % of RBC binding without antibody
T3 construct: also called Siglec-7-Fc protein; immobilized Siglec-7; not shown: Fc part
Experimental: To determine which antibodies compete with ligand binding to Siglec-7, a red blood cell (RBC) solid adhesion assay was carried out in accordance with standard protocols (Kelm et al., Current Biology, 1994). Red blood cells are highly decorated with glycoproteins containing sialic acids: therefore, the ability of an antibody to block RBC binding to immobilized Siglec-7 can be used to determine ligand interference. Briefly, 5 μg/ml Siglec-7-Fc was coated overnight at RT in 96 well Immunolon plates, then washed with PBS, blocked for one hour with binding buffer (PBS containing %0.25 BSA 1 mM CaCl₂), Siglec-7 antibodies (0.5 μg/ml or 1.0 μg/ml) were bound for one hour at RT with gentle rocking. After removal of unbound antibody, red blood cells were added to each well at a concentration of 3.0×10⁶ cells per ml and incubated at RT for one hour. Unbound RBCs were then carefully washed off 3× with PBS, and water was added to each well for hypotonic lysis of bound RBCs. The plate was transferred to −80° C. for 10 minutes, followed by 37° C. for 15 minutes. Bound RBCs were detected by peroxidase activity, followed by 2N sulfuric acid to stop the reaction. Signal was detected at […]. Data was calculated as a percent of RBC binding to plate bound Siglec-7-Fc in the absence of antibody.

[8] = molecular target: T1, human Siglec-7 expressed on human cells …; assay: cell-based or functional assay; remark: listed apart in the source
[9] = molecular target: T1, human Siglec-7 expressed on human cells …; assay: FACS titration on primary human dendritic cells, donor 358, 4 C
Experimental: (§6) Two Siglec-7 antibodies, 4E3 and 10B5, were titrated 2-fold for a 12-point curve with a concentration range of 6.67-0.00325 nM to assess binding and calculate half-maximal concentration (EC₅₀) for binding to primary human dendritic cells (FIG. 5B). Antibodies were serially diluted and incubated with cells in PBS with 1% BSA, 1 mM EDTA for 1 hour on ice (4° C.). Cells were pelleted and resuspended with goat anti-mouse secondary antibody conjugated with APC (BD Biosciences) at a 1:200 dilution in buffer. Secondary detection antibody was incubated for 30 minutes on ice (4° C.), then cells were washed 3 times in buffer before analyzing on a BD FACS Canto for APC MR. Data were analyzed with FlowJo Software (TreeStar).

[10] = molecular target: T1, human Siglec-7 expressed on human cells …; assay: FACS titration on primary human dendritic cells, donor 359, 4 C
Experimental: as §6

[11] = molecular target: T2, Histidine-tagged human Siglec-7 …; assay: SPR (BiaCore T200, 25 C), antibody captured on anti-mouse IgG, Siglec-7-His 25 nM, single-concentration kinetics
Experimental: as §3, §4, §5

[12] = molecular target: T2, Histidine-tagged human Siglec-7 …; assay: SPR (BiaCore T200, 25 C), antibody captured on anti-mouse IgG, Siglec-7-His 35 nM, single-concentration kinetics
Experimental: as §3, §4, §5

T1 sequence (Q9Y286 19-467): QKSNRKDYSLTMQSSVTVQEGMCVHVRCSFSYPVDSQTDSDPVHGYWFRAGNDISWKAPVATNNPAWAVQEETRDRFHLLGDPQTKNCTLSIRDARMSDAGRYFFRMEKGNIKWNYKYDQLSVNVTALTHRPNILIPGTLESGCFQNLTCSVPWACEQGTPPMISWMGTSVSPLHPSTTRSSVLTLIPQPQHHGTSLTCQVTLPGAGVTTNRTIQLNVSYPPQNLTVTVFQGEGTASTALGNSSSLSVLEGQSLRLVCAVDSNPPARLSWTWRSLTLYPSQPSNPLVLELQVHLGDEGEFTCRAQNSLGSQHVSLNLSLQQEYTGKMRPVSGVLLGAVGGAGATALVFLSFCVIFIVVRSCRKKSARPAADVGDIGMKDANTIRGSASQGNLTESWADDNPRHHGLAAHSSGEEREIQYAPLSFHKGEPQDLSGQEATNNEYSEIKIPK
T2 sequence (Q9Y286 19-357 limits assumed): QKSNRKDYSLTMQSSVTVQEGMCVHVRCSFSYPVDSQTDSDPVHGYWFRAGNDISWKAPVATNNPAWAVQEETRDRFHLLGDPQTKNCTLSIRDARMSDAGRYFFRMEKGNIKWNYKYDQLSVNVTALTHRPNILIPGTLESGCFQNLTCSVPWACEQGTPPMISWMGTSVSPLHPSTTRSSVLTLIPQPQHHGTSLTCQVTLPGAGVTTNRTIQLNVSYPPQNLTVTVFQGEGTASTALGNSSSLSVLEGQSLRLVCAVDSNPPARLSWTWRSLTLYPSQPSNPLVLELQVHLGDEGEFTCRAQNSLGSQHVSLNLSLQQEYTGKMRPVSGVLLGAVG
T3 sequence (Q9Y286 19-357 limits assumed): as above

Binder | Percent Siglec-7 Surface Expression, DCs [1] [%] | Percent Siglec-7 Surface Expression, Monocytes [1] [%] | Percent Siglec-7 Surface Expression, U937 cells [1] [%] | Percent Siglec-7 Surface Expression, Macrophages [2] [%] | Percent Siglec-7 Surface Expression, NK cells [2] [%] | % Positive [3] [%] | MFI [3] | % Positive [4] [%] | MFI [4] | % Positive [5] [%] | MFI [5] | Kd [6] [nM] | Percent RBC Binding to Siglec-7 [7] [%] | Percent Siglec-7 Surface Expression, Microglia [2] [%] | Kd [11] [nM] | also measured
anti-Siglec-7 antibody 2G1 (antibody, V domains shown, Variable domains assembled from FR and CDR entries; the printed VL FR1 looks shortened at its N-terminus; also called 2G11 (misprint in text)) VH: EVKLVESGGTLVKPGGSLKISCAASGFTFSNYDMSWVRQNPEKRLEWVATISSGGDYTYYPDIFKGRFTISRDDAKNALYLQMSSLRSEDTALYYCARHGYGNYDWYFDVWGAGATVTVSS VL: VLTQSPAIMSASPGEKVTMTCSANSSFIYMYWYQQKPGSSPRLLIFDTSNLASGVPIRFSGSGSGTSYSLTISRMEAEDTATYYCQQWSSSPLTFGGGTKLELK | 1100 | 140 | 121 | 95.7 | 114 | 99.4 | 577 | 99.5 | 25700 | 99.7 | 10200 | 0.1 | 14.5 | 106 |  | 
anti-Siglec-7 antibody 3E11 (antibody, V domains shown, Variable domains assembled from FR and CDR entries) VH: QVQLQQSGAELARPGASVKLSCKASGYIFTDYGITWVKQRTGQGLEWIGEISPRSGETYFNENYRVKATLTADKSSSTAYMQLFSLTSEDSAVYFCAREGNPFTYWGHGTLVTVSA VL: DVZMTQTPLSLPVSLGDQASISCRSSQSLVHSTGNTYLHWYLQKPGQSPKLLIYKVSNRFCGVPDRFSGSGAGTDFTLKISRVEAEDLGVYFCSQNTHVPYTFGGGTKLEIK | 19.9 | 23.9 | 82.4 | 7.4 | 108 | 98.7 | 380 | 99.6 | 4040 | 99.6 | 2520 |  | 26.8 | 34.2 | 1 | 

Now from value to binder, other results behind:

Percent Siglec-7 Surface Expression, DCs [1] [%] | Percent Siglec-7 Surface Expression, Monocytes [1] [%] | Percent Siglec-7 Surface Expression, U937 cells [1] [%] | Percent Siglec-7 Surface Expression, Macrophages [2] [%] | Percent Siglec-7 Surface Expression, NK cells [2] [%] | % Positive [3] [%] | MFI [3] | % Positive [4] [%] | MFI [4] | % Positive [5] [%] | MFI [5] | Kd [6] [nM] | Percent RBC Binding to Siglec-7 [7] [%] | Percent Siglec-7 Surface Expression, Microglia [2] [%] | Kd [11] [nM] | Binder | also measured
11 | 23.7 | 76.3 | 8.3 | 77.1 | 97.9 | 407 | 99.7 | 2840 | 99.7 | 956 | 1 | 89.5 |  |  | anti-Siglec-7 antibody 7A3 (antibody, V domains shown, Variable domains assembled from FR and CDR entries; VL FR1 and VH FR1 hold Z and VH FR1 looks shortened at its N-terminus) VH: LVZSGGALVKPGGSLKLSCAASGFTFSNYAMSWVRQTPEKRLEWVASISSGGSYNYYPDSVKGRFTISRDNARNTLYLQMSSLRSKDTAMYYCASQSYGSSYWYFDVWGAGTTVTVSS VL: DIQMTQZPATLSVTPGDRVSLSCRASQSISEYLHWYHQKSHESPRLLIKFASQSICGIPSRFSGSGSGSDFTLTINSVEPEDVGVYYCQNGHNFPYTFGGGTKLEIK | 
11.2 | 15.1 | 30.8 | 4.2 | 31.2 | 98.6 | 362 | 99.6 | 4150 | 99.7 | 2650 |  | 20.2 | 20.9 | 0.3 | anti-Siglec-7 antibody 4E3 (antibody, V domains shown, VL FR1 there holds a Z); also called S7-4E3; mAb S7-4E3) VH: EVQLVESGGALVKPGGSLKISCAVSGFIFSNYDMSWVRQNPEKRLEWVATISSGGGYTYYPDSVKGRFTISRDNAKNALYLQMSSLRSEDTALYYCTRHGYGNYDWYFDVWGAGATVTVSS VL: QIVLTQSPAILSASPGEKVTMTCSANSSFTYMYWYQQKPGSSPRLLIFDTSNLASGVPIRFSGSGSGTSYSLTISRMEAEDTATYYCQQWSSSPLTFGAGTKLELK | EC50 of Siglec-7 cell surface downregulation, primary human dendritic cells, donor 362 [8]: 0.114 nM; EC50 of Siglec-7 cell surface downregulation, primary human dendritic cells, donor 363 [8]: 0.095 nM; EC50 of Siglec-7 cell surface downregulation, primary human dendritic cells, donor 364 [8]: 0.0499 nM; EC50 of Siglec-7 cell surface downregulation, primary human dendritic cells, donor 365 [8]: 0.0336 nM; EC50 [9]: 0.336 nM; EC50 [10]: 0.301 nM
99.6 | 39.8 | 89.5 | 13.1 | 132 | 99.4 | 486 | 99.3 | 14600 | 99.7 | 5450 |  | 11.2 | 26.3 |  | anti-Siglec-7 antibody 4A1 (antibody, V domains shown, Variable domains assembled from FR and CDR entries) VH: QVQLQQSGSELRSPGSSVKLSCKDFDSEVFPITYMNWVRQKPGHGFEWIGDILPSIGRTMYGEKFEDKATLDADTVSNTAYLELNSLTSEDSAIYYCARSEGYLLAYWGQGTLVTVSA VL: DVVMTQTPLSLPVSLGDQASISCRSSQSLVHSTGNIYLHWYLQKPGQSPKLLIYKVSNRFZGVPDRFSGSGSGTDFTLKISRVEAEDLGVYFCSQNTHVPYTFGGGTKLEIK | Kd [12]: 0.3 nM
